Assay results published in publication PMC2212946.

B1: exCD23, recombinant soluble CD23 fragment containing the entire extracellular sequence (domain or fragment)
chain: DTTQSLKQLEERAARNVSQVSKNLESHHGDQMAQKSQSTQISQELEELRAEQQRLKSQDLELSWNLNGLQADLSSFKSQELNERNEASDLLERLREEVTKLRMELQVSSGFVCNTCPEKWINFQRKCYYFGKGTKQWVHARYACDDMEGQLVSIHSPEEQDFLTKHASHTGSWIGLRNLDLKGEFIWVDGSHVDYSNWAPGEPTSRSQGEDCVMMRGSGRWNDAFCDRKLGAWVCDRLATCTPPASEGSAESMGPDSRPDPDGRLPTPSAPLHS
B2: derCD23, recombinant version of the Der p I fragment of human CD23 (FcεRII), C-type lectin domain (domain or fragment)
chain: SGFVCNTCPEKWINFQRKCYYFGKGTKQWVHARYACDDMEGQLVSIHSPEEQDFLTKHASHTGSWIGLRNLDLKGEFIWVDGSHVDYSNWAPGEPTSRSQGEDCVMMRGSGRWNDAFCDRKLGAWVCDRLATCTPPASEGSAE

Molecular target: Fc fragment of IgE (domains Cε2-4) (human)
Sequence (P01854 whole entry, the tested form may be a part): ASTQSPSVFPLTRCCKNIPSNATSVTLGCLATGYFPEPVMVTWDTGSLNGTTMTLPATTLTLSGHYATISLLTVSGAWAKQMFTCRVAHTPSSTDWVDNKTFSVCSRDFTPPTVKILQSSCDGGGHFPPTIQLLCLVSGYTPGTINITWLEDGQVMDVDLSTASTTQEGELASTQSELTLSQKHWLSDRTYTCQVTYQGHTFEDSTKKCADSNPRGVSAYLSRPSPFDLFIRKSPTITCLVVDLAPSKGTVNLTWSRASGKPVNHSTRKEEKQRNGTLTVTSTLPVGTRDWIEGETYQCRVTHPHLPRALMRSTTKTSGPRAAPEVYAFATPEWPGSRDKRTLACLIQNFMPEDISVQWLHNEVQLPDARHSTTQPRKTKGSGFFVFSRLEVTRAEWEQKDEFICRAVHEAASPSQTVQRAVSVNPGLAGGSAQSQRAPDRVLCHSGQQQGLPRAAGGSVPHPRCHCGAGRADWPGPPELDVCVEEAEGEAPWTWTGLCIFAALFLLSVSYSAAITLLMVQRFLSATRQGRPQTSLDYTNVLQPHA
Experiment: SPR

Row | Binder | KD, first of two components | KD, second of two components | koff, major component | koff, minor component | Kd
1 | B1 | 1.1 µM | 0.039 µM | 0.0005 s⁻¹ | 0.04 s⁻¹ | 
2 | B2 |  |  |  |  | 1.3 µM
